Data on three molecules can be found in patent publication US20240190985A1 (NEW YORK UNIVERSITY, published 2024).

The chains are these.
B1: CD99 endogenously expressed on cells (Jurkat, KOPT-K1) (receptor)
chain: DGGFDLSDALPDNENKKPTAIPKKPSAGDDFDLGDAVVDGENDDPRPPNPPKPMPNPNPNHPSSSGSFSDADLADGVSGGEGKGGSDGGGSHRKEGEEADAPGVIPGIVGAVVVAVAGAISSFIAYQKKKLCFKENAEQGEVDMESHRNANAEPAVQRTLLEK
modifications: O-linked glycosylation (natural, on cells)
notes: also called endogenously expressed CD99; CD99 on cells

For assay [1], the target named is T1, tetravalent SAV-10A1 Fab complex (A4 streptavidin with biotinylated 10A1 Fab) (UniProt P22629 37-163, limits assumed, biotin on the C-terminal AviTag of the Fab heavy chain).
T1 construct: also called tetravalent SAV-Fab complex; not shown: N-terminal 6xHis tag
The assay is described as follows: flow cytometry titration on KOPT-K1 cells (FIG. 4C).

The target of assay [2] is T2, CD99 peptide containing the 10A1 epitope, Ac-GENDDPRPPNPPKPM-amide (human).
T2 construct: Synthetic peptide (New England Peptide); also called residues 62-76
T2 peptide: Ac-GENDDPRPPNPPKPM-NH2
The assay is described as follows: X-ray crystal structure of the complex, 3.10 Å.

The target of assay [3] is B1. Briefly: flow cytometry titration on KOPT-K1 cells, anti-Fab secondary antibody (FIG. 3B). In general terms: In flow cytometry, cells or beads pass a laser one at a time.
Assay [4] deals with B1. The assay is described as follows: cell-based or functional assay.

T1 sequence (P22629 37-163 limits assumed, one chain of several): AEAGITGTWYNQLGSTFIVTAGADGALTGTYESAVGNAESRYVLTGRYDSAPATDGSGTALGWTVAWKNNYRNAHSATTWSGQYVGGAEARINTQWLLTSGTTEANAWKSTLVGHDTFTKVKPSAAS

As for B1, the binding result in assay [1] is given as “binds”.

B2: 10A1 Fab (Fab, V domains shown)
VH: QVQLQQSGPVLVKPSQTLSLTCAISGDSISSDTTAWSWIRRSPSRGLEWLGWTYYRSKWFNYYAVSVKGRVTINPDTSKNQFSLQLSSVTPEDTAVYYCARGNGNGGMDVWGQGTTVTVSS
VL: SYVLTQPASASVSPGQTARITCSGDALPKQYAYWYQQKPGQAPVLVIFKDSERPSGVPERFSGSSSGTTVTLTISGAQAEDEADYYCQSVDNSGFYQVFGGGTQLTVL
notes: Fab made in E. coli by attaching VH and VL to CH1 and CL; also called 10A1 in the Fab format; monovalent 10A1
B2: in assay [2], the binding result is reported as “binds”.

B3: 10A1 IgG-HCscFv (antibody)
heavy: QVQLQQSGPVLVKPSQTLSLTCAISGDSISSDTTAWSWIRRSPSRGLEWLGWTYYRSKWFNYYAVSVKGRVTINPDTSKNQFSLQLSSVTPEDTAVYYCARGNGNGGMDVWGQGTTVTVSSASTKGPSVFPLAPSSKSTSGGTAALGCLVKDYFPEPVTVSWNSGALTSGVHTFPAVLQSSGLYSLSSVVTVPSSSLGTQTYICNVNHKPSNTKVDKKVEPKSCDKTHTCPPCPAPEAAGGPSVFLFPPKPKDTLMISRTPEVTCVVVDVSHEDPEVKFNWYVDGVEVHNAKTKPREEQYNSTYRVVSVLTVLHQDWLNGKEYKCKVSNKALGAPIEKTISKAKGQPREPQVYTLPPSREEMTKNQVSLTCLVKGFYPSDIAVEWESNGQPENNYKTTPPVLDSDGSFFLYSKLTVDKSRWQQGNVFSCSVMHEALHNHYTQKSLSLSPGKSSGSSGSSSSSGSSSQVQLQQSGPVLVKPSQTLSLTCAISGDSISSDTTAWSWIRRSPSRGLEWLGWTYYRSKWFNYYAVSVKGRVTINPDTSKNQFSLQLSSVTPEDTAVYYCARGNGNGGMDVWGQGTTVTVSSGSSSSSSGSSGSSSSSYVLTQPASASVSPGQTARITCSGDALPKQYAYWYQQKPGQAPVLVIFKDSERPSGVPERFSGSSSGTTVTLTISGAQAEDEADYYCQSVDNSGFYQVFGGGTQLTVL
light: SYVLTQPASASVSPGQTARITCSGDALPKQYAYWYQQKPGQAPVLVIFKDSERPSGVPERFSGSSSGTTVTLTISGAQAEDEADYYCQSVDNSGFYQVFGGGTQLTVLRTVAAPSVFIFPPSDEQLKSGTASVVCLLNNFYPREAKVQWKVDNALQSGNSQESVTEQDSKDSTYSLSSTLTLSKADYEKHKVYACEVTHQGLSSPVTKSFNRGEC
notes: Human IgG1 LALA-PG with the 10A1 scFv appended by a linker to the C-terminus of each heavy chain; Valency of four; also called 10A1 HCscFv; 10A1 HC-scFv
Take B3: the “maximum fluorescence intensity relative to the bivalent and dodecavalent antibodies” value in assay [3] is ~0.5 fold. In addition, the “IC50 of cytotoxicity (Annexin V, KOPT-K1 cells, 18 hours)” value in assay [4] is 82 nM Fv.
